Literature values, collected in patent US12509496B2 (Shanghai Minwei Biotechnology Co., LTD, priority 2020, dated 2025).

Conditions: in the blood; cited from earlier work

For dulaglutide, which half-life in vivo is on record?
Its half-life in vivo is 108 to 113 h.
